Target: the molecule itself
Assay: thioflavin-T fluorescence

B1: TDP-43-low complexity domain (LCD) (aa: 274-414) (domain or fragment, UniProt Q13148 274-414, looked up)
chain: GRFGGNPGGFGNQGGFGNSRGGGAGLGNNQGSNMGGGMNFGAFSINPAMMAAAQAALQSSWGMMGMLASQQNQSGPSGNNQNQGNMQREPNQAFGSGNNSYSGSNSGAAIGWGSASNAGSGSGFNGGFGSSMDSKSSGWGM
- binding result: binds
